In paper PMC4575908:

Tested on: O=C(O)[C@H]1O[C@@H](Oc2ccc([N+](=O)[O-])cc2)[C@H](O)[C@@H](O)[C@@H]1O
Assay: purified protein, by the assay type
Settings: 37.0 °C

| Substance | Km | kcat | kcat/Km |
| --- | --- | --- | --- |
| CpGUS (Clostridium perfringens str. 13) | 1100 ± 200 µM | 2.6 ± 0.6 s⁻¹ | 2400 M⁻¹ s⁻¹ |
| BfGUS (Bacteroides fragilis NCTC 9343) | 1900 ± 300 µM | 18 ± 1 s⁻¹ | 9500 M⁻¹ s⁻¹ |
